Assay results reported in article PMC7872222.
pKd: −log10 of the molar value.

Target: biotinylated FYCO1 peptide (human)
Assay: BLI

pKd: 5.85
Substance: GABARAP (from UniProt O95166 1-117) (natural protein)
